The first data set deals with IMP3 (GST-/His-tagged) (human). The data set can be described thus: EMSA. The note with it: EMSA: 10 mM Tris-HCl pH 7.5, 150 mM NaCl, 0.5 mM EDTA, 0.5 mM DTT, 0.1% NP-40, 5% glycerol, RNaseOUT, 1 ug tRNA, 1 ug BSA; 5 nM RNA; 30 min at 25 C, then 5 min …. In general terms: In EMSA bound probe runs differently from free probe, usually more slowly.
101-mer linear came in with a Kd of 9.3 nM.
Same read-out and setting: in the case of ANKRD17 linear it was 8.7 nM.
Still for that read-out and setting: the same measure for all-UG linear: 48.8 nM.

The same data set, now with this note: circular (T4 RNA ligase); EMSA: 10 mM Tris-HCl pH 7.5, 150 mM NaCl, 0.5 mM EDTA, 0.5 mM DTT, 0.1% NP-40, 5% glycerol, RNaseOUT, 1 ug tRNA, 1 ug BSA; 5 nM RNA; 30 min at 25 C, then 5 min ….
101-mer circRNA registered a Kd of 10.4 nM.
Still for that read-out and setting: in the case of ANKRD17 circRNA it was 8.5 nM; in that of all-UG circRNA, 60.3 nM.

One may read the Kd as the free concentration of one partner at which half of the binding sites on the other are occupied at equilibrium, for simple one-to-one binding. Read a low Kd as a tighter complex.

The record behind these values is publication PMC10234438.
